For experiment [1], the target named is T1, rFVIII (Homo sapiens, UniProt P00451). The experiment is described as follows: rFVIII activity recovery from peptide columns by chromogenic substrate assay (COATEST). Type of experiment: biochemical. As for the experimental part:
(§1) Immunoassay on rFVIII using a sandwich capture ELISA for the light chain and activity assay using a chromogenic substrate (COATEST Factor VIII kit from diaPharma, Franklin, Ohio) were performed on a BIOMEK® automated liquid handling system from Beckman Instruments (Brea, Calif.). The monoclonal antibody for rFVIII light chain (known as C7F7), the ELISA assay standard (lot A70K019), and the control for the activity assay (lot A70A001 @ 140 IU/mL) were from the Bayer Corporation (Berkeley, Calif.). The standard for the activity assay was at 11.2 IU/mL (Bayer, Clayton, N.C.), calibrated against the MEGA 1 standard, which is a working standard used by American manufacturers for measuring factor VIII activity (21).
(§2) Additional confirmatory binding assay and performance of the discovered binding peptides in terms of total rFVIII and activity recovery was performed in a column chromatographic format on a microbore HPLC. The resins were packed into 0.4×5 cm columns (Thomson, Springfield, Va.) and tested on the MICHROM HPLC system (Michrom BioResources, Auburn, Calif.). The elution program for the trials utilized the following method. The column was pre-equilibrated with equilibration buffer (as above). A 1 mL aliquot of 1:10 PPF followed by 1 mL of rFVIII (10,000 ng) in 1:10 PPF were injected and allowed sufficient time to flow through the column using equilibration buffer. The column was then washed with step elutions of 0.5 M and 1.0 M CaCl2 in equilibration buffer. The column was exposed to equilibration buffer. Remaining protein was eluted with 2% by volume glacial acetic acid in water. Columns were kept at 5° C. during the chromatographic runs. For each 1 mL injection (equilibration buffer, 1:10 PPF and 10,000 ng rFVIII in 1:10 PPF), the chromatographic cycle was run for 45 minutes (injection, flow through, 0.5 M CaCl2, 1.0 M CaCl2, equilibration buffer, 2% acetic acid, equilibration buffer).
(§3) A Gilson FC204 fraction collector at the HPLC outlet collected individual eluates for further analysis. Each collection tube had 100 μL hSA added to it to stabilize the rFVIII. Fractions collected from the 2% acetic acid eluates were neutralized with 2 M Tris, pH 10.5 to bring the pH to neutrality. The fractions were analyzed for total protein by the integration of the absorbance at 280 nm, for rFVIII by immunoassay (sandwich capture ELISA), and for rFVIII activity by a chromogenic substrate assay.
Tables 7 and 8 list the sequences for which activity recovery was determined by a chromogenic substrate assay (COASTEST kit, diaPharma, Franklin, Ohio). Chromatographc conditions are the same as described above for the results from Tables 5 and 6. It can be

Experiment [2] has as its target T1, rFVIII. The experiment is described as follows: column format binding assay, rFVIII mass per fraction by sandwich capture ELISA for the light chain. Conditions: for 0.5M CaCl2 ng / 0.5M CaCl2 % total / 2% acetic acid % total / 2% acetic acid ng / Flow through % total / Total ng / Flow through ng: Table 5; for Flow through ng: 10,000 ng rFVIII in 1:10 PPF injected, 5° C.; for ELISA results % total: Table 9, 0.5M CaCl2 fraction. How it is done:
as §1, §2, §3
Tables 5 and 6 present the results from the additional confirmatory binding assays using the column format. The chromatography method was run by injecting the samples at a flow rate of 865 μL/min (413 cm/hr). In order to provide a 10 minute residence time of sample in the column the flow was decreased to 17 μL/min (10 cm/hr) upon injection.
Following the incubation, the flow was set at 865 μL/min (413 cm/hr) for the step clutions of 0.5 M CaCl2, 1.0 M CaCl2, and 2% acetic acid. Results are expressed in terms of the total mass of rFVIII in each fraction, as determined by the sandwich capture ELISA assay for the rFVIII light chain. […] A control using a non-binding peptide sequence (IGF) is also shown for comparison--in this case, 95% of the rFVIII loaded to the column was collected in the flow through fraction. Additional controls with no
(In general: ELISA stands for enzyme-linked immunosorbent assay.)

In experiment [3] the target is T1, rFVIII. The experiment is described as follows: confirmatory binding assay in filtration plate format using 14C-rFVIII. Conditions: for Total dpm / 0.5M CaCl2 % total / 2% acetic acid % total / 2% acetic acid dpm / 0.5M CaCl2 dpm / beads % total / beads dpm: Table 3; for Total dpm / beads % total / beads dpm: 14C-rFVIII 20 nM; for 0.5M CaCl2 % total / 2% acetic acid % total / 2% acetic acid dpm / 0.5M CaCl2 dpm: 14C-rFVIII 20 nM in PPF, 5 mg beads; for 0.5M CaCl2 dpm: 3.0 × 10^15 DPM/mole, 5° C.; for beads % total / beads dpm: remaining on beads after washes. How it is done: Confirmatory binding assays were performed in a filtration plate format using individual peptide sequences synthesized directly onto the TOYOPEARL AF amino 650 M resin, at a final substitution density of 0.1 mmole/g resin. A slurry of each individual peptide sequence was prepared using deionized water. A 100 μL volume of beads (corresponding to 5 mg) was loaded into each well of the filtration plate (MULTISCREEN Assay System, Millipore, Bedford, Mass.), in triplicate for each peptide sequence. Beads were washed with 20% ethanol and incubated overnight with equilibration buffer (20 mM imidazole, 10 mM
CaCl2, 0.105 M NaCl, pH 6.9). A 100 μL aliquot of ^14 C-rFVIII diluted in neat PPF to a final concentration of 20-30 nM was loaded into each well and incubated for 1 hour at 5° C. Filtrate (unbound ^14 C-rFVIII) was collected into a microtiter plate and transferred to liquid scintillation vials for dpm counting. Beads were washed sequentially with: 100 μL of equilibration buffer for 15 minutes, 200 μL of 0.5 M CaCl2 (in equilibration buffer), 200 μL of 1.0 M CaCl2 (in equilibration buffer), and 200 uL of 2% by volume glacial acetic acid in water, for 1 hour each at 5° C. Scintillation counting on the unbound ^14 C-rFVIII (plus equilibration buffer wash), salt and acid washes, as well as on the beads was then performed and the overall mass balance calculated.
Beads presenting the appropriate peptide sequence on the surface were placed in the filtration plate wells and incubated sequentially with equilibration buffer, ^14 C-rFVIII in PPF, equilibration buffer, 0.5 M CaCl2 wash, 1.0 M CaCl2 wash and 2% acetic acid wash. After each incubation, filtrate was collected in microtiter plates, and dpm counted on each
In Table 3, the ^14 C-rFVIII was loaded at 20 nM (in PPF) and the radiolabeling yield was at 3.0×10^15 dpm/mole. In Table 4, the ^14 C-rFVIII was loaded at 30 nM (in PPF) and the radiolabeling yield was at 5.0×10^15 dpm/mole.

Results on eight substances are retold here after patent US6191256A, “Recombinant factor VIII binding peptides” (Bayer Corporation, priority 1998, dated 2001).

T1 sequence (P00451 20-2351): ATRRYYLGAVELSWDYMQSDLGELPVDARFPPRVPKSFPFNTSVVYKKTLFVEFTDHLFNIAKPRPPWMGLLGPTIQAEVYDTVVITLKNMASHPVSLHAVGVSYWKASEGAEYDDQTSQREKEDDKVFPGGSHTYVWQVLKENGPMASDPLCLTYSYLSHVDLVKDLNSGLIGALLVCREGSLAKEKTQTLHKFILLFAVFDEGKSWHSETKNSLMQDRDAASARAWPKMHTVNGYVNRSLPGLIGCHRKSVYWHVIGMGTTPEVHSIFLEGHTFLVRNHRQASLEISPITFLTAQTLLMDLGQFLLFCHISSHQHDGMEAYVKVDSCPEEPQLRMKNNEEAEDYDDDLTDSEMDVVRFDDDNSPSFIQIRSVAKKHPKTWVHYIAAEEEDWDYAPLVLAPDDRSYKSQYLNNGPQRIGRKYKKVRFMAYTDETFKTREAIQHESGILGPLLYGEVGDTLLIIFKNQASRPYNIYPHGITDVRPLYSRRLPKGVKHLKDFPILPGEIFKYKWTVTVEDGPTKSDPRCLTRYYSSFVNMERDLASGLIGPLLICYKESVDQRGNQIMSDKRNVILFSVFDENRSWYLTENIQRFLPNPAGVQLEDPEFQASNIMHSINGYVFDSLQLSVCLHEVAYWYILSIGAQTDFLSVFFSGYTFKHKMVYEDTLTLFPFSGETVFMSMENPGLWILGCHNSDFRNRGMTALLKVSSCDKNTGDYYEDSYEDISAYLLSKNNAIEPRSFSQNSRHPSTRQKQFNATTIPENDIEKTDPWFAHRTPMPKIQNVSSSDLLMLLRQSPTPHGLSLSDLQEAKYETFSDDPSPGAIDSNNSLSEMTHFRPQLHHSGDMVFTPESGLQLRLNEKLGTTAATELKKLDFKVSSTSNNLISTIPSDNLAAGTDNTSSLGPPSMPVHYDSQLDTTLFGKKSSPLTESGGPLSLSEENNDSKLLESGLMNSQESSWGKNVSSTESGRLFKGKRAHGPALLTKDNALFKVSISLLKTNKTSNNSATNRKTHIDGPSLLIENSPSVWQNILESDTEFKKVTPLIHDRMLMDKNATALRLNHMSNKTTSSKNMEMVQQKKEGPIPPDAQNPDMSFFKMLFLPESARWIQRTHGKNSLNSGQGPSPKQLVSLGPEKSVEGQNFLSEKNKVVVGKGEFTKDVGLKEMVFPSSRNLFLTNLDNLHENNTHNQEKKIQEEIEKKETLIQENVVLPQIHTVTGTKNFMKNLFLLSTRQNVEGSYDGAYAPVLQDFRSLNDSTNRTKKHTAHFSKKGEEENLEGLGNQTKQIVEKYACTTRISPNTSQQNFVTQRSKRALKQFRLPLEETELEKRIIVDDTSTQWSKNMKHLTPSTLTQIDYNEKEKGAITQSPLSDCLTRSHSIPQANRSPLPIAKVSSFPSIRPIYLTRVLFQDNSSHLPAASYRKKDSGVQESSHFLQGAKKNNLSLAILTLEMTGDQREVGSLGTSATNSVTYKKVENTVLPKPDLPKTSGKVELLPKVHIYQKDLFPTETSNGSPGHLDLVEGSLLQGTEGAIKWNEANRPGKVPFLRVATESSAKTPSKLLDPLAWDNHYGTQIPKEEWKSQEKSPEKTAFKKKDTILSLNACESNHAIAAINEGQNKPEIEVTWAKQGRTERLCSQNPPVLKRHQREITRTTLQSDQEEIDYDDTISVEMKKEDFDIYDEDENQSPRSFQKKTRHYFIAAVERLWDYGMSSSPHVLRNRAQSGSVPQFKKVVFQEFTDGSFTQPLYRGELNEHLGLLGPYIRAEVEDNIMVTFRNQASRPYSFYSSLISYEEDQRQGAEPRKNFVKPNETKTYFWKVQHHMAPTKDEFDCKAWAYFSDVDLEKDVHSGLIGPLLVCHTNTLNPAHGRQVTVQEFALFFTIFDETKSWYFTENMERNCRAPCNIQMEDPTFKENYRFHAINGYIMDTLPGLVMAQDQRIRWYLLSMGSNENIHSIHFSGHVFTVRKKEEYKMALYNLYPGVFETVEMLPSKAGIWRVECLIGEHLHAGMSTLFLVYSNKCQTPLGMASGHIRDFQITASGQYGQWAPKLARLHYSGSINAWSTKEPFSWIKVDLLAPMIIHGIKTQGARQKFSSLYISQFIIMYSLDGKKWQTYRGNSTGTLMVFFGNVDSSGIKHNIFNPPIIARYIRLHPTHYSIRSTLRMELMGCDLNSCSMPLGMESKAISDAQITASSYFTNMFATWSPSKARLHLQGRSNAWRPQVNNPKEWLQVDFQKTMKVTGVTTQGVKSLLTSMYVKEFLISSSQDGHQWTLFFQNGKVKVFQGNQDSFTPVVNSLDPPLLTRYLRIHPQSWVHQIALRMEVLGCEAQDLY
T1 sequence (P00451 1668-2351 limits assumed): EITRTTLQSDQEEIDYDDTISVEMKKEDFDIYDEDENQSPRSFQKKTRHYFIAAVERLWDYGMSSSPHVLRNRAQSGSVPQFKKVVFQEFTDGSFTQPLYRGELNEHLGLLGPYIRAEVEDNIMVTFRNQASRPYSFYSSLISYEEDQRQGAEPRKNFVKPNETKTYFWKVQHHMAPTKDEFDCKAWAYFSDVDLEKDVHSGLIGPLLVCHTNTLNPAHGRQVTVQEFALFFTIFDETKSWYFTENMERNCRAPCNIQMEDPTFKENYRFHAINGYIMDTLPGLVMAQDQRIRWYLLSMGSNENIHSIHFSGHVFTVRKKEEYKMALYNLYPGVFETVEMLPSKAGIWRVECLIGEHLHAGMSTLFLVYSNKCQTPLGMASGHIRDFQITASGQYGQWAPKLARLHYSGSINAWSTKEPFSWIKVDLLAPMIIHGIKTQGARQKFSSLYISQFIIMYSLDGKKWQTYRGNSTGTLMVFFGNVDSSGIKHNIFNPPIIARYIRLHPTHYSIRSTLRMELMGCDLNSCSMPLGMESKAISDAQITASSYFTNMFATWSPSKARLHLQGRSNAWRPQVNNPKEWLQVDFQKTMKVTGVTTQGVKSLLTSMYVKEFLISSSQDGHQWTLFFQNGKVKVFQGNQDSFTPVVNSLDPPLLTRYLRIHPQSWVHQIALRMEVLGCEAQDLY

With 1 (KPNPLA) [compound 1], in the experiment with rFVIII [1] (Table 7), the “0.5M CaCl2 IU” value worked out at 32.8 IU, the “2% acetic acid % total” value is given as 2%, the “2% acetic acid IU” value amounted to 0.58 IU and the “Flow through % total” value is 0%. Also, the “Total IU” value with rFVIII [1] (Table 7) is reported as 36.5 IU. In addition, the “0.5M CaCl2 % total” value with rFVIII [1] (Table 7, activity recovery) was 90%. Further, the “Flow through IU” value in the experiment with rFVIII [1] (Table 7, rFVIII activity in fraction) is given as 0.03 IU. Further, the “Activity results % total” value with rFVIII [1] (Table 9, 0.5M CaCl2 fraction) worked out at 90%. Besides, in the experiment with rFVIII [2], the “0.5M CaCl2 ng” value is given as 4961 ng, the “0.5M CaCl2 % total” value worked out at 88%, the “2% acetic acid % total” value came to 1% and the “2% acetic acid ng” value is on record as 61 ng. In the experiment with rFVIII [2], the “Flow through % total” value stood at 10%, the Total ng amounted to 5651 ng, the Flow through ng is 583 ng and the “ELISA results % total” value is reported as 88%. Besides, in the experiment with rFVIII [3], the Total dpm came out at 3162 dpm, the “0.5M CaCl2 % total” value came to 85%, the “2% acetic acid % total” value came to 12% and the “2% acetic acid dpm” value is 368 dpm. For the same substance, in the experiment with rFVIII [3], the “0.5M CaCl2 dpm” value came to 2694 dpm, the beads % total is on record as 3% and the beads dpm is 99 dpm.

As to 3 (YVQGLW) [compound 3], in the experiment with rFVIII [3], the Total dpm is given as 2020 dpm, the “0.5M CaCl2 % total” value came out at 74%, the “2% acetic acid % total” value was 19% and the “2% acetic acid dpm” value came out at 379 dpm. For the same substance, in the experiment with rFVIII [3], the “0.5M CaCl2 dpm” value was found to be 1502 dpm, the beads % total amounted to 7% and the beads dpm is recorded as 140 dpm.

For the substance 4 (FRPHWA) [compound 4], in the experiment with rFVIII [2], the “0.5M CaCl2 ng” value is listed as 5510 ng, the “0.5M CaCl2 % total” value is 90%, the “2% acetic acid % total” value is recorded as 3% and the “2% acetic acid ng” value turned out to be 160 ng. In the experiment with rFVIII [2], the “Flow through % total” value was found to be 4%, the Total ng is reported as 6123 ng, the Flow through ng amounted to 225 ng and the “ELISA results % total” value is 90%. In the experiment with rFVIII [3], the Total dpm is 3744 dpm, the “0.5M CaCl2 % total” value is 78%, the “2% acetic acid % total” value was 17% and the “2% acetic acid dpm” value is given as 631 dpm. In the experiment with rFVIII [3], the “0.5M CaCl2 dpm” value stood at 2905 dpm, the beads % total came out at 6% and the beads dpm amounted to 209 dpm.

For 8 (RPRW) [compound 8], in the experiment with rFVIII [2], the “0.5M CaCl2 ng” value is listed as 5449 ng, the “0.5M CaCl2 % total” value was 97%, the “2% acetic acid % total” value came to 0% and the “2% acetic acid ng” value was 10 ng. In the experiment with rFVIII [2], the “Flow through % total” value is 2%, the Total ng stood at 5623 ng, the Flow through ng amounted to 122 ng and the “ELISA results % total” value was 97%. For the same substance, in the experiment with rFVIII [3], the Total dpm is recorded as 4098 dpm, the “0.5M CaCl2 % total” value is recorded as 86%, the “2% acetic acid % total” value was determined as 9% and the “2% acetic acid dpm” value came to 377 dpm. Further, in the experiment with rFVIII [3], the “0.5M CaCl2 dpm” value is recorded as 3543 dpm, the beads % total stood at 4% and the beads dpm stood at 178 dpm.

16 (WRRHRY) [compound 16]: in the experiment with rFVIII [2], the “0.5M CaCl2 ng” value was determined as 338 ng, the “0.5M CaCl2 % total” value stood at 9%, the “2% acetic acid % total” value worked out at 71% and the “2% acetic acid ng” value amounted to 2550 ng. Moreover, in the experiment with rFVIII [2], the “Flow through % total” value turned out to be 2%, the Total ng stood at 3615 ng and the Flow through ng was determined as 56 ng. Besides, in the experiment with rFVIII [3], the Total dpm is on record as 2897 dpm, the “0.5M CaCl2 % total” value was determined as 21%, the “2% acetic acid % total” value stood at 45% and the “2% acetic acid dpm” value is reported as 1302 dpm. In the experiment with rFVIII [3], the “0.5M CaCl2 dpm” value came to 608 dpm, the beads % total is listed as 34% and the beads dpm turned out to be 986 dpm.

As for 17 (FYRFWN) [compound 17], in the experiment with rFVIII [2], the “0.5M CaCl2 ng” value is on record as 1622 ng, the “0.5M CaCl2 % total” value came to 37%, the “2% acetic acid % total” value is 54% and the “2% acetic acid ng” value came to 2336 ng. Further, in the experiment with rFVIII [2], the “Flow through % total” value turned out to be 3%, the Total ng is 4348 ng and the Flow through ng stood at 127 ng. In addition, in the experiment with rFVIII [3], the Total dpm is 3009 dpm, the “0.5M CaCl2 % total” value is given as 17%, the “2% acetic acid % total” value worked out at 72% and the “2% acetic acid dpm” value stood at 2156 dpm. Moreover, in the experiment with rFVIII [3], the “0.5M CaCl2 dpm” value is on record as 498 dpm, the beads % total came out at 12% and the beads dpm stood at 355 dpm.

With 18 (WLWSHN) [compound 18], in the experiment with rFVIII [2], the “0.5M CaCl2 ng” value worked out at 2362 ng, the “0.5M CaCl2 % total” value came to 56%, the “2% acetic acid % total” value is given as 18% and the “2% acetic acid ng” value is 760 ng. Moreover, in the experiment with rFVIII [2], the “Flow through % total” value is on record as 0%, the Total ng was 4200 ng and the Flow through ng came to 8 ng. Besides, in the experiment with rFVIII [3], the Total dpm was determined as 2608 dpm, the “0.5M CaCl2 % total” value turned out to be 25%, the “2% acetic acid % total” value is 67% and the “2% acetic acid dpm” value is given as 1752 dpm. In addition, in the experiment with rFVIII [3], the “0.5M CaCl2 dpm” value stood at 651 dpm, the beads % total was 8% and the beads dpm is recorded as 205 dpm.

For the substance IGF [reference compound], at rFVIII [2], the “0.5M CaCl2 ng” value turned out to be 201 ng, the “0.5M CaCl2 % total” value is 4%, the “2% acetic acid % total” value is 0% and the “2% acetic acid ng” value is listed as 10 ng. At rFVIII [2], the “Flow through % total” value is recorded as 95%, the Total ng was found to be 4962 ng and the Flow through ng stood at 4719 ng. On rFVIII [3], the Total dpm was found to be 274 dpm, the “0.5M CaCl2 % total” value amounted to 80%, the “2% acetic acid % total” value was found to be 15% and the “2% acetic acid dpm” value came out at 41 dpm. For the same substance, on rFVIII [3], the “0.5M CaCl2 dpm” value worked out at 219 dpm, the beads % total is on record as 5% and the beads dpm is given as 14 dpm. On rFVIII [3] (plate format), the “binding of rFVIII in words” value is “non binder”.
